The target of assay [1] is T1, HCV Core1-169 (hepatitis C virus (HCV-1), UniProt P26664 1-169).
T1 sequence: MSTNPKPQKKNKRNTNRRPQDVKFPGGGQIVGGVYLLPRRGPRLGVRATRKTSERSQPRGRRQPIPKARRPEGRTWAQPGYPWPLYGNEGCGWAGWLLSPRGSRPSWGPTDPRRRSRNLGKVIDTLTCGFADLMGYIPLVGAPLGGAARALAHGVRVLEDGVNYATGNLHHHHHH
Kind of assay: SPR sandwich, capture mAb C11-14.

In assay [2] the target is T1, HCV Core1-169. In words: SPR sandwich, capture mAb C11-7.
Assay [3] concerns the target T1, HCV Core1-169. In words: SPR sandwich, capture mAb C11-9.
The target in assay [4] is T1, HCV Core1-169. In words: SPR sandwich, capture mAb C11-3.
Assay [5] deals with T2, HCV Core 134-171-TT Peptide (hepatitis C virus (HCV-1 numbering) …).
T2 construct: also called ALRZ-9 peptide
In words: SPR, captured mAb, peptide analyte. A general note: Surface plasmon resonance follows binding to a sensor surface in real time, without labels.

B1: HCV 208A-134 (antibody, V domains shown)
VH: QGQMQQSGAELAKPGASVKLSCKTSGFTFSSSYISWLKQKPGQSLEWIAWIYAGTGNTNYNQKFTDKAQLTVDTSSSTAYMQLSSLTTEDSAIYYCAISGTGFTYWGQGTLVTVSA
VL: EVLMTQSPLSLPVSLGDQASISCRSSQSLEHTNGNTYLEWFLQRPGQPPKLLIYKVSSRFSGVPDRFSGSGSGTDFTLKISRVEAEDLGVYYCFQGSHVPFTFGSGTKLAIKR
As to B1, the expected percent binding in the assay with HCV Core1-169 [1], in the assay with HCV Core1-169 [2], with HCV Core1-169 [3] and in the assay with HCV Core1-169 [4] was at most 1% each time. The affinity in assay [5], expressed as Kd, was 2.1 nM. In addition, the off-rate constant (koff) – broadly, the first-order rate constant of dissociation – in assay [5] stood at 3.8e-05 s⁻¹. Also, the kon (usually the rate constant with which the complex forms) in assay [5] came out at 18000 M⁻¹ s⁻¹.

B2: HCV 208A-207 (antibody, V domains shown)
VH: QGQLQQPGAEFVKPGASLKLSCRASGYTFTSYWIHWVKQRPGQGLEWIGEIDPSDSYINQNQKFRGKATLTVDKSSSTAYMELSGLTSEDSAVYYCARHYYGVLDSWGQGTTLTVSS
VL: DIVLTQSPATLSVTPGDRVSLSCRASQRIYNYLHWYQQKSHESPRLLTKYASQSISGIPSRFSGSGSGTDFILTINSVETEDFGMYFCQQSNSWPLTFGAGTKLELRR
As for B2, the expected percent binding with HCV Core1-169 [1], with HCV Core1-169 [2], with HCV Core1-169 [3] and with HCV Core1-169 [4] was at most 1% each time. The dissociation constant (Kd) (commonly the equilibrium constant for the complex coming apart) in assay [5] was below 0.032 nM. The koff in assay [5] is below 1e-05 s⁻¹. The kon in assay [5] stood at 310000 M⁻¹ s⁻¹.

B3: HCV 208A-1064 (antibody, V domains shown)
VH: EVQLQQSGPELVKPGASVKISCKTSGYTFTEYAMHWMKQSHGKSLEWIGGINPTNGDTIYNQKFKDKAKLTVDRSSSTAYMELRSLTSDDSALFYCARRELDYFASWGQGTTLTVSS
VL: DIVLTQSPASLIVSLGQTATISCRASQSVSTSRFSYLHWIQQKPGQPPKLLIKYASNLESGVPVRFSGSGSGTDFTLNIHPVEEEDTATYFCQHSWEFPFTFGSGTKLKIKR
On to B3, for which the expected percent binding in the assay with HCV Core1-169 [1] came out at 16.3%; with HCV Core1-169 [2], 19.6%; with HCV Core1-169 [3], 10.5%; with HCV Core1-169 [4], 16.3%. Moreover, the equilibrium dissociation constant (Kd) in assay [5] worked out at 0.21 nM. This molecule also displayed a koff in assay [5] of 0.00034 s⁻¹. The same molecule showed an on-rate constant (kon) in assay [5] of 1.6e+06 M⁻¹ s⁻¹.

B4: HCV 208A-920 (antibody, V domains shown)
VH: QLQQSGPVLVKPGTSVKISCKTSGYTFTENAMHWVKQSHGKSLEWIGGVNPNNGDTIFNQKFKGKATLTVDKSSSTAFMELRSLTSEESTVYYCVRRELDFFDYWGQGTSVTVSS
VL: DIVLTQSPASLAVSLGQRATISCRASQSVSTSRYSYMHWYQQKPGQPPKLLIKYASNLESGVPARFSGSGSGTDFTLNIHPVAEEDTAAYYCQHSWEFPFTFGSGTKLEIKR
Consider B4, for which the expected percent binding amounted to 19.1% with HCV Core1-169 [1], 22.9% with HCV Core1-169 [2], 13.2% in the assay with HCV Core1-169 [3] and 19.3% with HCV Core1-169 [4]. Binding in assay [5] was put at a Kd of 0.39 nM. The koff in assay [5] was determined as 0.00056 s⁻¹. The kon in assay [5] amounted to 1.5e+06 M⁻¹ s⁻¹.

B5: HCV 208A-741 (antibody, V domains shown)
VH: QLQQSGPVLVKPGASVMISCKTSGYTFTENAMHWVKQSHGKSLEWIGGVNPNNGDTIFNQKFKGKATLTVDKSSSTAFMELRSLTSEESTVYYCVRRELDFFDYWGQGTSVTVSS
VL: DIVLTQSPASLAVSLGQRTTISCGASQSVSTSRFSYMHWYQQKPGQPPKLLIKYASNLESGVPARFSGSGSGTDFTLNIHPVAEEDTAAYYCQHSWEFPFTFGSGTKLEIKR
Consider B5, for which the expected percent binding stood at 21.2% with HCV Core1-169 [1], 22.7% in the assay with HCV Core1-169 [2], 14.2% in the assay with HCV Core1-169 [3] and 19.4% in the assay with HCV Core1-169 [4]. In assay [5], the Kd worked out at 0.41 nM. Also, the off-rate constant (koff) in assay [5] worked out at 0.00069 s⁻¹. This molecule registered a kon in assay [5] of 1.7e+06 M⁻¹ s⁻¹.

B6: HCV 208A-133 (antibody, V domains shown)
VH: QLQQSGPVLVGPGASVMISCKTSGYTFTENAMHWVEQSHGKSLEWIGGVNPNNGDTIFNQKFKGKATLTVDKSSSTAFMEFRSLTSEESTVYYCVRRELDFFDYWGQGTSVTVSS
VL: DIVLTQSPASLAVSLGQRATISCRASQSVSTSRYSYMHWYQQKPGQPPKLLIKYASNLESGVPARFSGSGSGTDFTLNIHPVAEEDTATYYCQHSWEFPFTFGSGTKLEIKR
In the case of B6, the expected percent binding was found to be 9.3% in the assay with HCV Core1-169 [1], 13.9% with HCV Core1-169 [2], 5.8% with HCV Core1-169 [3] and 9.8% with HCV Core1-169 [4]. The Kd in assay [5] was determined as 0.41 nM. Further, the koff in assay [5] came to 0.0005 s⁻¹. Also, the kon in assay [5] amounted to 1.2e+06 M⁻¹ s⁻¹.

B7: HCV 208A-334 (antibody, V domains shown)
VH: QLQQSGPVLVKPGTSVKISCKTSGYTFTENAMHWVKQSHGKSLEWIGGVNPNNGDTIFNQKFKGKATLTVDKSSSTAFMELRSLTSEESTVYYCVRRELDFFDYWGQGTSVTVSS
VL: DIVLTQSPASLAVSLGQRATISCRASQSVSTSRYSYMHWYQQKPGQPPKLLIKYASNLESGVPARFSGSGSGTDFTLNIHPVAEEDTAAYYCQHSWGFPFTFGSGTKLEIKR
On to B7, for which the expected percent binding was determined as 15.9% with HCV Core1-169 [1], 20.6% with HCV Core1-169 [2], 10.3% in the assay with HCV Core1-169 [3] and 17.2% with HCV Core1-169 [4]. The affinity in assay [5], expressed as Kd, was 0.34 nM. The koff in assay [5] was 0.00057 s⁻¹. In addition, the kon in assay [5] was 1.7e+06 M⁻¹ s⁻¹.

B8: HCV 208B-1094 (antibody, V domains shown)
VH: EVQLQQSGPELVKPGASVKISCKTSGYTFTEYAMHWMKQSHGKSLEWIGGINPTNGDTIYNQRFKDKAKLTVDRSSSTAYMELRSLTSDDSALFYCARRELDYFASWGQGTTLTVSS
VL: DIVLTQSPASLIVSLGQTATISCRASQSLSTSRFSYVHWIQQKPGQPPKLLIKYASNLESGVPVRFSGSGSGTDFTLNIHPVEEEDTATYFCQHSWEFPFTFGSGTKLKIKR
B8: the expected percent binding with HCV Core1-169 [1] turned out to be 27.8%; with HCV Core1-169 [2], 28.4%; with HCV Core1-169 [3] it was 19.8%; with HCV Core1-169 [4], 24.4%. This molecule also registered a Kd in assay [5] of 0.16 nM. Also, the koff in assay [5] was 0.00025 s⁻¹. Besides, the kon in assay [5] came to 1.5e+06 M⁻¹ s⁻¹.

B9: HCV 208B-251 (antibody, V domains shown)
VH: QLQQSGPVLVKPGASVKISCKTSGYTFTENAMHWVKQSHGKSLEWIGGVNPNNGDTIYNQKFKGKATLTVDKSSSTAFMELRSLTSEESPVYFCVRRELDFFDYWGQGTSVTVSS
VL: DIVLTQSPASLAVSLGKKATISCRASQSVSTSRYSYMHWYQQKPGHPPKLLIKYASNLESGVPARFSGSGSGTDFTLNIHPVAEEDTAAYYCQHSWEFPFTFGSGTKLEIKR
Consider B9, for which the expected percent binding came to 18.2% with HCV Core1-169 [1], 20.1% with HCV Core1-169 [2], 12.3% with HCV Core1-169 [3] and 16.6% with HCV Core1-169 [4]. The molecule also displayed a Kd in assay [5] of 0.58 nM. This molecule yielded a koff in assay [5] of 0.00065 s⁻¹. Also, the kon in assay [5] turned out to be 1.1e+06 M⁻¹ s⁻¹.

B10: HCV 208A-159 (antibody, V domains shown)
VH: QLQQSGPAQVKPGASVMISCKTSGYTFTENAMHWVKQSHGKSLEWIGGVNPNNGDTIFNQKFKDKAALTVDKSSSTAFMELRSLTSEESTVYYCVRRELDFFDYWGQGTSVTVSS
VL: DIVLTQSPASLAVSLGQRATISCRASQSVSTSRYSYVHWYQQKPGQPPKLLIKYAANLESGVPARFSGSGSGTDFTLNIHPVAEEDAAAYYCQHSWEFPFTFGSGTKLEIKR
For B10, the expected percent binding in the assay with HCV Core1-169 [1] worked out at 5.5%; with HCV Core1-169 [2], 7%; in the assay with HCV Core1-169 [3] it was 3.3%; in the assay with HCV Core1-169 [4], 4.6%. This molecule also registered a Kd in assay [5] of 0.45 nM. Besides, the koff in assay [5] was found to be 0.00065 s⁻¹. Besides, the kon in assay [5] was 1.4e+06 M⁻¹ s⁻¹.

B11: HCV 208A-110 (antibody, V domains shown)
VH: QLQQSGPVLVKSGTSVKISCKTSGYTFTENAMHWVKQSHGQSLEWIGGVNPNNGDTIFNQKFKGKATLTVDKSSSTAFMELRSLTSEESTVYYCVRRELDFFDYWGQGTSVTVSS
VL: DIVLTQSPASLAVSLGQRATISCRASQSVSTSRYSYMHWYQQKPGQPPKLLIKYASNLESGVPARFSGSGSGTDFTLNIHPVAEEDTAAYYCQHSWEFPFTFGSGTKLEIKR
As for B11, the expected percent binding worked out at 14.8% with HCV Core1-169 [1], 21.1% in the assay with HCV Core1-169 [2], 9.4% with HCV Core1-169 [3] and 15.7% in the assay with HCV Core1-169 [4]. Besides, the Kd in assay [5] worked out at 0.33 nM. In assay [5], this molecule returned an off-rate (koff) of 0.00055 s⁻¹. Besides, in assay [5], the kon was found to be 1.7e+06 M⁻¹ s⁻¹.

B12: HCV 208B-556 (antibody, V domains shown)
VH: QLQQSGPVLVKPGASVMISCKTSGYTFTENAMHWVKQSHGKSLEWIGGVNPNNGDTIFNQKFKGKATLTVDKSSSTAFMEFRSLTSEESTVYYCVRRELDFFDYWGQGTSVTVSS
VL: DIVLTQSPASLAVSLGQRATISCRASQSVSTSRYSYMHWYQQKPGQPPKLLIKYASNLESGVPARFSGSGSGTDFTLNIHPVAEEDTATYYCQHSWEFPFTFGSGTKLEIKR
B12: the expected percent binding turned out to be 12.7% with HCV Core1-169 [1], 15.3% with HCV Core1-169 [2], 8.3% in the assay with HCV Core1-169 [3] and 11.5% with HCV Core1-169 [4]. This molecule also came in with a Kd in assay [5] of 0.4 nM. This molecule also returned a koff in assay [5] of 0.0006 s⁻¹. The molecule also came in with a kon in assay [5] of 1.5e+06 M⁻¹ s⁻¹.

B13: HCV 208A-293 (antibody, V domains shown)
VH: EVQLQQSGPELVKPGASVKISCKASGFTFTEYAMHWMKQSHGKSLEWIGGINPTNGDAIYNQKFKDKAKLTVDRSSSTAYMELRSLTSDDSALFYCARRELDYFPSWGQGTTLTVSS
VL: DIVLTQSPASLIVSLGQRATISCRASQSVSTSRFSYVHWIQQKPGQPPKLLIKYASNLESGVPVRFSGSGSGTDFILNIHPVEEEDTATYFCQHSWEFPFTFGSGTKLEIKR
For B13, the expected percent binding in the assay with HCV Core1-169 [1] stood at 16.4%; with HCV Core1-169 [2], 20.9%; in the assay with HCV Core1-169 [3], 11%; in the assay with HCV Core1-169 [4] it was 17.9%. Moreover, in assay [5], binding was put at a Kd of 0.11 nM. Moreover, the koff in assay [5] came out at 0.00023 s⁻¹. Besides, the kon in assay [5] was 2.1e+06 M⁻¹ s⁻¹.
